# Results published in patent publication US20250043002A1 (Regeneron, published 2025).
# Experiments:
# [1] = target: T1, human CD28 on cells (endogenous on Jurkat/NFkB-Luc cells; human primary CD4+ T cells) (human, UniProt P10747 19-220); assay: cell-based or functional assay
# [2] = target: human CD28 expressed with a C-terminal murine Fc tag (hCD28.mFc) (human); assay: SPR Biacore 25 C, hCD28.mFc captured by anti-mFc, antibody injected
# [3] = target: T1, human CD28 on cells (endogenous on …); assay: cell-based or functional assay; remark: listed apart in the source
# [4] = target: T1, human CD28 on cells (endogenous on …); assay: flow cytometry, Jurkat/NFkB-Luc cells (endogenous CD28); EC50 NC
# [5] = target: human PD-L1 expressed with a C-terminal myc-myc-hexahistidine tag (hPD-L1.mmH) (human); assay: SPR Biacore 25 C, antibody captured by anti-hFc, hPD-L1.mmH injected
# human PD-L1 expressed with a C-terminal myc-myc-hexahistidine tag (hPD-L1.mmH) (human), sequence (chain, as listed by the source limits assumed): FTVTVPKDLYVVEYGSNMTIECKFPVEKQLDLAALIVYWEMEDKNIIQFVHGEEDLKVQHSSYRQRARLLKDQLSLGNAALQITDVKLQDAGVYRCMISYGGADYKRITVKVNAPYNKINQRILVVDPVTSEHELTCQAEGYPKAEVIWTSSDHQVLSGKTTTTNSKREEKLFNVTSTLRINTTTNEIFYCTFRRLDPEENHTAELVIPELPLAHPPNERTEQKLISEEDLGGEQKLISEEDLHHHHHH
# [6] = target: T2, human PD-L1 expressed on cells (HEK293/hCD20/hPSMA/hPD-L1; WSU-DLCL2/hPD-L1) (human, UniProt Q9NZQ7 19-290); assay: cell-based or functional assay
# T2 sequence (Q9NZQ7 19-290): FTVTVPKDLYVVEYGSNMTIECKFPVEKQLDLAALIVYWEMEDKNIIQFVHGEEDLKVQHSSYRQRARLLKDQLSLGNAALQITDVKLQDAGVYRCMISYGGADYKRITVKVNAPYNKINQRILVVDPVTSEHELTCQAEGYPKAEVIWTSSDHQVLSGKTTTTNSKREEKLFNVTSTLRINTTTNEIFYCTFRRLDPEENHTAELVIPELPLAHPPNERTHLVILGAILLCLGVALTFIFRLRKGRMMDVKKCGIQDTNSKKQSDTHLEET
# [7] = target: T3, hPD-L1-mFc: hPD-L1 extracellular domain (amino acids F19-T239) expressed with the Fc portion of mouse IgG2a … (human; mouse, UniProt Q9NZQ7 19-239); assay: blocking ELISA, 0.7 nM hPD-L1-mFc on plate-coated hPD1-hFc
# T3 construct: range 19-239; not shown: Fc portion of mouse IgG2a, amino acids E98-K330
# T3 sequence (Q9NZQ7 19-239 limits assumed): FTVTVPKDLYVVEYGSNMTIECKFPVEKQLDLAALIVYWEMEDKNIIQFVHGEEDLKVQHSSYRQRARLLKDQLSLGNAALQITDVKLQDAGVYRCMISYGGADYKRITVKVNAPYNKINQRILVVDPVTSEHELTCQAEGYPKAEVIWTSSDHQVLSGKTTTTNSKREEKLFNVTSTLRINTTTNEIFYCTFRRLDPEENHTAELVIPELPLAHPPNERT
# [8] = target: T2, human PD-L1 expressed on cells …; assay: flow cytometry, HEK293/hCD20/hPSMA/hPD-L1 cells
# [9] = target: T1, human CD28 on cells (endogenous on …); assay: flow cytometry, Jurkat/NFkB-Luc cells (endogenous CD28)
"NFkB-luciferase MAX (RLU), Jurkat/NFkB-Luc + HEK293/hCD20/hPSMA [1] [RLU]","NFkB-luciferase MAX (RLU), Jurkat/NFkB-Luc + HEK293/hCD20/hPSMA + CD20×CD3 [1] [RLU]","NFkB-luciferase MAX (RLU), Jurkat/NFkB-Luc + HEK293/hCD20/hPSMA/hPD-L1 [1] [RLU]","NFkB-luciferase MAX (RLU), Jurkat/NFkB-Luc + HEK293/hCD20/hPSMA/hPD-L1 + CD20×CD3 [1] [RLU]",90 nM mAb Bind (RU) [2] [RU],"IL2 release MAX (RLU), CD4+ T cells + HEK293/hCD20/hPSMA [3] [RLU]","IL2 release MAX (RLU), CD4+ T cells + HEK293/hCD20/hPSMA + CD20×CD3 [3] [RLU]","IL2 release MAX (RLU), CD4+ T cells + HEK293/hCD20/hPSMA/hPD-L1 [3] [RLU]","IL2 release MAX (RLU), CD4+ T cells + HEK293/hCD20/hPSMA/hPD-L1 + CD20×CD3 [3] [RLU]",Fold Change (max MFI over secondary antibody alone) [4] [fold],30 nM hPD-L1.mmH Bind (RU) [5] [RU],Kd [5] [pM],koff [5] [s⁻¹],kon [5] [M⁻¹ s⁻¹],t1/2 [5] [h],"AP-1 luciferase EC50, WSU-DLCL2/hPD-L1 + Jurkat/AP1-Luc/hPD1 [6] [pM]","AP-1 luciferase MAX (RLU), WSU-DLCL2/hPD-L1 + Jurkat/AP1-Luc/hPD1 [6] [RLU]",% Blocking at 100 nM mAb [7] [%],IC50 [7] [pM],EC50 [8] [pM],Binder,also measured
11000,181000,11100,155000,-1.3,4530,9080,3640,6960,5.2,–,–,–,–,–,–,–,–,–,–,"mAb9373 (antibody, V domains shown, Bivalent parental antibody; also called parental bivalent anti-PD-L1 antibody; PD-L1 bivalent control antibody) VH: QVQLVQSGTEVKKPGASVKVSCKASGYTFTAYYMHWVRQAPGQGLDWMGWISPNSGFTNYAQKFQGRVTMTRDTSINTFYMELSGLRSDDTAVYYCAREGSTHHNSFDPWGQGTLVTVSS VL: not shown",–
14200,217000,19500,2.73e+06,21.6,4250,12600,2760,141000,–,44.2,116,6.37e-05,548000,3.02,202,1.49e+06,98,820,1300,"REGN6193 (bispecific antibody, human IgG4 S228P, kappa, common light chain 1-39; also called PD-L1×CD28; anti-PD-L1 × anti-CD28 bispecific antibody) heavy 1: EVQLVESGGGLVQPGRSLRLSCAASGFTFDDYALHWVRQAPGKGLEWVSGISWTGGTIDYADSVKGRFTISRDNAKNSLYLQMSSLRTEDTAIYYCTRDIRGNWKYGGWFDPWGQGTLVTVSSASTKGPSVFPLAPCSRSTSESTAALGCLVKDYFPEPVTVSWNSGALTSGVHTFPAVLQSSGLYSLSSVVTVPSSSLGTKTYTCNVDHKPSNTKVDKRVESKYGPPCPPCPAPPVAGPSVFLFPPKPKDTLMISRTPEVTCVVVDVSQEDPEVQFNWYVDGVEVHNAKTKPREEQFNSTYRVVSVLTVLHQDWLNGKEYKCKVSNKGLPSSIEKTISKAKGQPREPQVYTLPPSQEEMTKNQVSLTCLVKGFYPSDIAVEWESNGQPENNYKTTPPVLDSDGSFFLYSRLTVDKSRWQEGNVFSCSVMHEALHNHYTQKSLSLSLGK heavy 2: EVQLVESGGGLVQPGGSLRLSCAASGFTFSRNNMHWVRQAPGKGLEYVSGISSNGGRTYYADSVKGRFTISRDNSKNTLYLQMGGLRAADMAVYFCTRDDELLSFDYWGQGTLVTVSSASTKGPSVFPLAPCSRSTSESTAALGCLVKDYFPEPVTVSWNSGALTSGVHTFPAVLQSSGLYSLSSVVTVPSSSLGTKTYTCNVDHKPSNTKVDKRVESKYGPPCPPCPAPPVAGPSVFLFPPKPKDTLMISRTPEVTCVVVDVSQEDPEVQFNWYVDGVEVHNAKTKPREEQFNSTYRVVSVLTVLHQDWLNGKEYKCKVSNKGLPSSIEKTISKAKGQPREPQVYTLPPSQEEMTKNQVSLTCLVKGFYPSDIAVEWESNGQPENNYKTTPPVLDSDGSFFLYSRLTVDKSRWQEGNVFSCSVMHEALHNRFTQKSLSLSPGK light: not shown","NFkB-luciferase EC50, Jurkat/NFkB-Luc + HEK293/hCD20/hPSMA/hPD-L1 + CD20×CD3 [1]: 413 pM; Kd [2]: 46900 pM; koff [2]: 0.00168 s⁻¹; kon [2]: 35900 M⁻¹ s⁻¹; t1/2 [2]: 6.9 min; Fold Change (max MFI over secondary antibody alone) [8]: 847 fold; Max gMFI [8]: 1.3e+06 gMFI; Fold Change (max MFI over secondary antibody alone) [9]: 21.8 fold; Max gMFI [9]: 9200 gMFI; IL2 release EC50, CD4+ T cells + HEK293/hCD20/hPSMA/hPD-L1 + CD20×CD3 [3]: 144 pM"
44400,180000,57100,165000,-0.9,4360,8980,3680,10900,4.7,112,130,7.42e-05,571000,2.59,6.51,1.04e+06,99,520,730,"mAb9364 (antibody, V domains shown, Bivalent parental antibody; also called parental bivalent anti-PD-L1 antibody; PD-L1 bivalent control antibody) VH: EVQLVESGGGLVQPGRSLRLSCAASGFTFDDYALHWVRQAPGKGLEWVSGISWTGGTIDYADSVKGRFTISRDNAKNSLYLQMSSLRTEDTAIYYCTRDIRGNWKYGGWFDPWGQGTLVTVSS VL: not shown",Fold Change (max MFI over secondary antibody alone) [8]: 401 fold; Max gMFI [8]: 620000 gMFI
